# Experimental data from paper PMC11178655, “Dosimetry and pharmacokinetics of [^177Lu]Lu-satoreotide tetraxetan in patients with progressive neuroendocrine tumours” (European Journal of Nuclear Medicine and Molecular Imaging, 2024).
# Several values for one entry are separate records, joined by “and”; a condition that tells them apart may be missing. Equal values may be shown once. Where a SMILES comes first, the peptide text is derived from it. Bridges are numbered along the chain shown (N, C = ends). [ ]: non-standard residue; d: D form. The star is where a group is joined. DOTA = O=C(O)CN1CCN(CC(=O)O)CCN(CC(=O)*)CCN(CC(=O)O)CC1; dPhe(4-NHCONH2) = NC(=O)Nc1ccc(C[C@@H](N)C(=O)O)cc1; Dihydroorotyl(S) = O=C1C[C@@H](C(=O)*)NC(=O)N1; Phe(4-Cl) = N[C@@H](Cc1ccc(Cl)cc1)C(=O)O; Phe(4-NH2) = Nc1ccc(C[C@H](N)C(=O)O)cc1
# Tested on: patients with progressive, SSTR-positive NETs
# Experiment: Patient-specific image-based dosimetry (NUKDOS) of tumours and organs, phase I/II trial
# Format: in vivo, human
# Procedure: In both parts A and B of the study, patients underwent planar whole-body imaging at 4 h and 1, 2, 3, and 6 days after each [^177Lu]Lu-satoreotide tetraxetan treatment cycle. Patients in part A also underwent single-photon emission computed tomography/computed tomography (SPECT/CT) at 24 h after each [^177Lu]Lu-satoreotide tetraxetan cycle. Those in part B underwent SPECT/CT, immediately before or after planar scintigraphy, at 4 h, and 1, 2, 3, and 6 days after each [^177Lu]Lu-satoreotide tetraxetan administration. Full details of the image acquisition methodology are provided in the Supplementary Information.
# Delineation of tumour volumes was performed on anatomical SPECT/CT images after each [^177Lu]Lu-satoreotide tetraxetan administration. Tumours with a longest diameter < 2 cm were not analysed due to the difficulty in correcting for partial volume effects caused by the limited spatial resolution of the SPECT/CT systems. For study inclusion in part A, one tumour lesion ≥ 2 cm must have been present for eligibility; in part B, two or more tumour lesions ≥ 2 cm must have been present, each with an uptake on SSTR imaging higher than that of normal liver parenchyma (target lesion on [^68Ga]Ga-DOTA-TATE or -DOTA-TOC positron emission tomography: maximum standardised uptake value [SUVmax] ≥ 2x the mean SUV [SUVmean] of liver background; or ^111In-scintigraphy/SPECT: Krenning score 3 or 4 [uptake > normal liver, or uptake > spleen or kidneys, respectively [26]]).
# Reconstruction parameters were set up to produce isotropic voxels of < 5 mm; voxels were continuous throughout the field of view. Anatomic coverage of the acquisition was determined according to the patients’ tumour locations on the planar whole-body scan acquisition with liver, both kidneys and spleen in the same bed position. For organs showing [^177Lu]Lu-satoreotide tetraxetan uptake, regions of interest (ROIs)/volumes of interest (VOIs) were drawn manually over the whole organs of interest (whole body, left and right kidneys, liver, spleen, and bone marrow), using the NUKDOS software for planar whole-body scans and the SPECT/CT acquired in part A [27]. VOIs for the same organs were drawn for all SPECT/CT images acquired in part B. All ROIs/VOIs were then used for activity quantification. Time-integrated activity coefficients (TIACs) for a given source volume were computed by integrating the time-activity curves. Full details of the tumour delineation and activity quantification methodology are provided in the Supplementary Information.
# Patient-specific dosimetry calculations were performed after each treatment cycle in both parts A and B, using the absorbed dose calculation features of the NUKDOS software for image-based dosimetry calculations. The NUKDOS software was chosen as it allowed for an integral approach to organ dosimetry (including image quantification, time-activity curve-fitting and dosimetry calculation). For the bone marrow, both image-based and blood-based calculations were performed in part A [28, 29]. In part B, only image-based bone marrow dosimetry was performed. Organ Level INternal Dose Assessment/EXponential Modelling (OLINDA/EXM) version 1.0 software, the most widely used version at the time of the study, was used to perform model-based dosimetry calculations, which were only performed after the first [^177Lu]Lu-satoreotide tetraxetan cycle for patients in part B. To generate organ-specific absorbed doses, TIACs were used as input data. Full details on OLINDA/EXM software settings and organ-specific TIAC calculation methods are provided in the Supplementary Information.
# All images were acquired with a 20% energy window around the main photopeak of ^177Lu (208 keV). For scatter correction, the triple-energy window method was applied based on the recommendation of the Committee on Medical Internal Radiation Dose. Whole-body images were acquired with a scanning time of 20 cm/min in a 256 × 1,024 matrix. […]
# [1] = Part B Cohort 3 (4.5 GBq, 300 µg; 700 µg at cycle 2), median (range), n = 8
# [2] = Part B Cohort 3 (4.5 GBq/cycle), image-based dosimetry, median (range), n = 6
# [3] = Part B Cohort 3 (4.5 GBq/cycle), median (range), n = 8
# [4] = Part B Cohort 3 (4.5 GBq/cycle), median (range), n = 9
# [5] = Part B Cohort 3, median (range), n = 8
# [6] = Part B Cohort 6 (4.5 GBq/cycle), median (range), n = 6
# [7] = Part B Cohort 6 (4.5 GBq/cycle), median (range), n = 7
# [8] = Part B Cohort 6 (4.5 GBq/cycle), median (range), n/n-les 4/9
smiles,measurement,setting,value
"C[C@@H](O)[C@@H]1NC(=O)[C@H](CCCCN)NC(=O)[C@@H](Cc2ccc(NC(N)=O)cc2)NC(=O)[C@H](Cc2ccc(NC(=O)[C@@H]3CC(=O)NC(=O)N3)cc2)NC(=O)[C@H](NC(=O)[C@H](Cc2ccc(Cl)cc2)NC(=O)CN2CCN(CC(=O)O)CCN(CC(=O)O)CCN(CC(=O)O)CC2)CSSC[C@@H](C(=O)N[C@H](Cc2ccc(O)cc2)C(N)=O)NC1=O [[^177Lu]Lu-satoreotide tetraxetan, metal not drawn] ({DOTA}-[Phe(4-Cl)][dC][Phe(4-NH2)](Dihydroorotyl(S))[dPhe(4-NHCONH2)]KTC[dY]-NH2; disulfide 2-7 (inferred); C-terminus assumed)","Cycle 3 ADC, Kidneys",[1],0.8 (0.4–1.2) Gy/GBq
same,"Cycle 3 ADC, Tumours",[1],5.5 (2.6–16.8) Gy/GBq
same,"Ratio of ADCs Cycle 2/Cycle 1 (700 vs. 300 µg), Bone marrow",[2],95.0 (36.4–143) %
same,"Ratio of ADCs Cycle 2/Cycle 3 (700 vs. 300 µg), Bone marrow",[2],95.0 (60.0–125) %
same,"Ratio of ADCs Cycle 2/Cycle 3 (700 vs. 300 µg), Spleen","Part B Cohort 3 (4.5 GBq/cycle), median (range), n = 5",79.3 (61.2–90.8) %
same,"Ratio of ADCs Cycle 2/Cycle 1 (700 vs. 300 µg), Spleen","Part B Cohort 3 (4.5 GBq/cycle), median (range), n = 6",61.9 (45.9–108) %
same,"Ratio of ADCs Cycle 2/Cycle 3 (700 vs. 300 µg), Body",[3],101 (78.7–132) %
same,"Ratio of ADCs Cycle 2/Cycle 3 (700 vs. 300 µg), Kidney",[3],82.0 (64.8–110) %
same,"Ratio of ADCs Cycle 2/Cycle 1 (700 vs. 300 µg), Body",[4],83.3 (52.8–100) %
same,"Ratio of ADCs Cycle 2/Cycle 1 (700 vs. 300 µg), Kidney",[4],80.8 (61.0–113) %
same,"Ratio of ADCs Cycle 2/Cycle 3 (700 vs. 300 µg), Liver lesions","Part B Cohort 3 (4.5 GBq/cycle), median (range), n/n-les 6/9",68.9 (57.3–121) %
same,"Ratio of ADCs Cycle 2/Cycle 1 (700 vs. 300 µg), Liver lesions","Part B Cohort 3 (4.5 GBq/cycle), median (range), n/n-les 7/10",70.4 (52.4–95.7) %
same,"Ratio of ADCs Cycle 2/Cycle 3 (700 vs. 300 µg), All lesions","Part B Cohort 3 (4.5 GBq/cycle), median (range), n/n-les 8/15",77.6 (52.4–121) %
same,"Ratio of ADCs Cycle 2/Cycle 1 (700 vs. 300 µg), All lesions","Part B Cohort 3 (4.5 GBq/cycle), median (range), n/n-les 9/17",62.5 (27.6–95.7) %
same,"Ratio of Cycle 3/ Cycle 1 ADCs, Bone marrow","Part B Cohort 3, image-based dosimetry, median (range), n = 6",106 (36.4–138) %
same,"Ratio of Cycle 3/ Cycle 1 ADCs, Spleen","Part B Cohort 3, median (range), n = 5",87.8 (76.0–152) %
same,"Ratio of Cycle 3/ Cycle 1 ADCs, Kidneys",[5],94.1 (78.9–146) %
same,"Ratio of Cycle 3/ Cycle 1 ADCs, Tumours",[5],80.5 (44.1–152) %
same,"Cycle 1 ADC, Bone marrow","Part B Cohort 6 (4.5 GBq, 300 µg), image-based dosimetry, median (range), n = 6",0.1 (0.0–0.2) Gy/GBq
same,"Cycle 1 ADC, Spleen","Part B Cohort 6 (4.5 GBq, 300 µg), median (range), n = 6",0.8 (0.4–1.0) Gy/GBq
same,"Cycle 1 ADC, Tumours","Part B Cohort 6 (4.5 GBq, 300 µg), median (range), n = 8",13.5 (2.2–81.0) Gy/GBq
same,"Cycle 1 ADC, Kidneys","Part B Cohort 6 (4.5 GBq, 300 µg), median (range), n = 9",0.8 (0.4–1.1) Gy/GBq
same,"Cycle 3 ADC, Bone marrow","Part B Cohort 6 (4.5 GBq, 300 µg; 1,300 µg at cycle 2), image-based dosimetry, median (range), n = 3",0.1 (0.0–0.1) Gy/GBq
same,"Cycle 3 ADC, Spleen","Part B Cohort 6 (4.5 GBq, 300 µg; 1,300 µg at cycle 2), median (range), n = 4",0.8 (0.7–1.5) Gy/GBq
same,"Cycle 3 ADC, Tumours","Part B Cohort 6 (4.5 GBq, 300 µg; 1,300 µg at cycle 2), median (range), n = 5",7.7 (3.2–70.3) Gy/GBq
same,"Cycle 3 ADC, Kidneys","Part B Cohort 6 (4.5 GBq, 300 µg; 1,300 µg at cycle 2), median (range), n = 6",0.8 (0.7–1.2) Gy/GBq
same,"Ratio of ADCs Cycle 2/Cycle 3 (1300 vs. 300 µg), Bone marrow","Part B Cohort 6 (4.5 GBq/cycle), image-based dosimetry, median (range), n = 3",114 (50.0–120) %
same,"Ratio of ADCs Cycle 2/Cycle 1 (1300 vs. 300 µg), Bone marrow","Part B Cohort 6 (4.5 GBq/cycle), image-based dosimetry, median (range), n = 4",200 (80.0–240) %
same,"Ratio of ADCs Cycle 2/Cycle 3 (1300 vs. 300 µg), Spleen","Part B Cohort 6 (4.5 GBq/cycle), median (range), n = 4",49.7 (49.3–52.6) %
same,"Ratio of ADCs Cycle 2/Cycle 1 (1300 vs. 300 µg), Spleen","Part B Cohort 6 (4.5 GBq/cycle), median (range), n = 5",48.0 (44.3–94.4) %
same,"Ratio of ADCs Cycle 2/Cycle 3 (1300 vs. 300 µg), Body",[6],87.6 (72.7–102) %
same,"Ratio of ADCs Cycle 2/Cycle 3 (1300 vs. 300 µg), Kidney",[6],72.4 (52.8–96.3) %
same,"Ratio of ADCs Cycle 2/Cycle 1 (1300 vs. 300 µg), Body",[7],82.3 (48.3–97.6) %
same,"Ratio of ADCs Cycle 2/Cycle 1 (1300 vs. 300 µg), Kidney",[7],92.5 (65.9–121) %
same,"Ratio of ADCs Cycle 2/Cycle 1 (1300 vs. 300 µg), Liver lesions",[8],48.4 (24.7–76.5) %
same,"Ratio of ADCs Cycle 2/Cycle 3 (1300 vs. 300 µg), Liver lesions",[8],67.9 (40.6–104) %
same,"Ratio of ADCs Cycle 2/Cycle 3 (1300 vs. 300 µg), All lesions","Part B Cohort 6 (4.5 GBq/cycle), median (range), n/n-les 5/11",67.9 (40.6–104) %
same,"Ratio of ADCs Cycle 2/Cycle 1 (1300 vs. 300 µg), All lesions","Part B Cohort 6 (4.5 GBq/cycle), median (range), n/n-les 6/13",44.4 (24.7–76.5) %
same,"Ratio of Cycle 3/ Cycle 1 ADCs, Bone marrow","Part B Cohort 6, image-based dosimetry, median (range), n = 3",200 (175–400) %
same,"Ratio of Cycle 3/ Cycle 1 ADCs, Spleen","Part B Cohort 6, median (range), n = 3",185 (84.2–192) %
same,"Ratio of Cycle 3/ Cycle 1 ADCs, Tumours","Part B Cohort 6, median (range), n = 4",79.0 (28.6–114) %
same,"Ratio of Cycle 3/ Cycle 1 ADCs, Kidneys","Part B Cohort 6, median (range), n = 5",143 (88.8–198) %
same,"Cumulative bone marrow absorbed dose, single patient","cohort 1 patient, one cycle at 5.9 GBq, developed grade 3 thrombocytopenia",3.6 Gy
same,"Overall specific absorbed dose coefficient in all lesions, initial diagnosis Pheochromocytoma + paraganglioma","first treatment cycle, median, N = 4",2.1 Gy/GBq
same,"Overall specific absorbed dose coefficient in all lesions, initial diagnosis Lung NET","first treatment cycle, median, N = 6",5.1 Gy/GBq
same,"Overall specific absorbed dose coefficient in all lesions, initial diagnosis GEP-NET","first treatment cycle, median, N = 23",5.8 Gy/GBq
same,"Patients with ADC ratio > 150% between cycle 3 and cycle 1, bone marrow","human, in vivo",23.8 % of patients
same,"Patients with ADC ratio > 150% between cycle 3 and cycle 1, kidneys","human, in vivo",8.3 % of patients
same,"Patients with ADC ratio > 150% between cycle 3 and cycle 1, liver","human, in vivo",no patients
same,"Patients with ADC ratio > 150% between cycle 3 and cycle 1, spleen","human, in vivo",22.2 % of patients
same,"Mean cumulative absorbed dose in the left and right kidneys, single patient","part A patient, three cycles each at 4.5 GBq, eGFR below normal at baseline, no further deterioration of renal function",24.1 Gy
same,"Cumulative bone marrow absorbed dose, single patient","part A patient, three treatment cycles at 4.5, 4.4 and 4.3 GBq, no acute haematological toxicity",2.2 Gy
same,"Cumulative absorbed dose, bone marrow, image-based method","part A, cycles 1–3, 11 evaluated patients, median",1.1 Gy
same,"Cycle 1 ADC, Tumours","part B (all cohorts), median [range]",7.9 [1.9–83.3] Gy/GBq
same,"Cumulative bone marrow absorbed dose, single patient","part B cohort 1 patient, two treatment cycles at 4.7 GBq, no acute haematological toxicity",1.9 Gy
same,"Cumulative absorbed dose, kidneys (both left and right)","parts A and B, after cycles 1–3, median, pre-specified limit 23.0 Gy",10.8 Gy
same,"Cumulative absorbed dose, bone marrow, image-based","parts A and B, patients who completed three cycles (n = 21), median, pre-specified limit 1.5 Gy",1.1 Gy
same,Cycle 1 ADC of tumours with ADC ratio cycle 3/cycle 1 > 150%,range,0.6–4.1 Gy/GBq
same,Observations of ADC ratio between cycle 3 and cycle 1 in tumours > 150%,share of observations,6.5%
same,"Cumulative bone marrow absorbed dose, single patients","two additional patients after treatment cycle 4, individual values",1.5 Gy and 1.8 Gy
